This data set addresses T1, ICBP-59 (Homo sapiens, UniProt Q96T88 SEQ:263-793).
T1 chain: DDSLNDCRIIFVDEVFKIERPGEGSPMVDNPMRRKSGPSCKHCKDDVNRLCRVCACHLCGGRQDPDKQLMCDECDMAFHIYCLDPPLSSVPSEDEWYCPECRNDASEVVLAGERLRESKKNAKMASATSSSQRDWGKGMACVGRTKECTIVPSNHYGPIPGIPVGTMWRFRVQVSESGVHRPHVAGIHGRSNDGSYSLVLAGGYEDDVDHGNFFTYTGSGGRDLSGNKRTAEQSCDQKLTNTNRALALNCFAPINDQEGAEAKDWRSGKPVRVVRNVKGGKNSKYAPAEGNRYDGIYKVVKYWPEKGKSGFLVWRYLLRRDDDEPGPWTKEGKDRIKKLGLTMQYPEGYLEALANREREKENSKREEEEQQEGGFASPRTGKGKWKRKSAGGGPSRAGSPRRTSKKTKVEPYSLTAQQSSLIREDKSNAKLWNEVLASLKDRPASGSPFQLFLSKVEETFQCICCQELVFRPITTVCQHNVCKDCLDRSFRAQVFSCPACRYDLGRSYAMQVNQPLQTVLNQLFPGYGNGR
Briefly: EMSA; 12 mM HEPES-NaOH pH 7.9, 60 mM KCl, 4 mM Tris-HCl, 12% glycerol, poly(dI/dC), room temperature. The conditions noted are these: tags: GST fusion (pGEX-4T-1), GST cleaved with thrombin; label: 32P; cohesive EcoRI/XbaI ends. As for the experimental part: The ICBP-59 protein (1 μg) was incubated with 1 ng of oligonucleotide and labelled at its terminal end by phosphorous ³²P in 12% glycerol, 12 mM HEPES-NaOH (pH 7.9), 60 mM KCl, 4 mM Tris-HCl (pH 7.9), 100 ng BSA, 0.6 mM DTT, and 100 ng poly(dI/dC) in 20 μl (Inouye et al., 1994). After a 30-minutes incubation at room temperature, the reaction mix was loaded in 6% polyacrylamide gels. In competition experiments, the quantity indicated of non-labelled oligonucleotides were added to the reaction mix 10 minutes before the addition of proteins. To examine the binding properties of ICBP90 with regard to the ICB2 box, we used the same protocol except that labelled oligonucleotide contained only one copy of the CCAAT sequence as described below: […]
Background: A gel shift assay detects complexes by their altered migration in electrophoresis.

B1: ICB2X3 (dsDNA)
DNA 1: AATTCGATTGGTTCTGATTGGTTCTGATTGGTTCTT
DNA 2: CTAGAAGAACCAATCAGAACCAATCAGAACCAATCG
On to B1, for which the binding result is given as “binds”.

The values above are taken from patent publication US20060281125, “ICBP90 polypeptide and its fragments and polynucleotides coding for said polypeptides and applications for diagnosing and treating cancer” (Institut National de la Sante et de la Recherche Medicale, published 2006).
